Biological target: Complement C2 (human) (human) (UniProt P06681)
Assay: cell-based or functional assay

Sequence of Complement C2 (human) (human) (P06681 21-752 limits assumed): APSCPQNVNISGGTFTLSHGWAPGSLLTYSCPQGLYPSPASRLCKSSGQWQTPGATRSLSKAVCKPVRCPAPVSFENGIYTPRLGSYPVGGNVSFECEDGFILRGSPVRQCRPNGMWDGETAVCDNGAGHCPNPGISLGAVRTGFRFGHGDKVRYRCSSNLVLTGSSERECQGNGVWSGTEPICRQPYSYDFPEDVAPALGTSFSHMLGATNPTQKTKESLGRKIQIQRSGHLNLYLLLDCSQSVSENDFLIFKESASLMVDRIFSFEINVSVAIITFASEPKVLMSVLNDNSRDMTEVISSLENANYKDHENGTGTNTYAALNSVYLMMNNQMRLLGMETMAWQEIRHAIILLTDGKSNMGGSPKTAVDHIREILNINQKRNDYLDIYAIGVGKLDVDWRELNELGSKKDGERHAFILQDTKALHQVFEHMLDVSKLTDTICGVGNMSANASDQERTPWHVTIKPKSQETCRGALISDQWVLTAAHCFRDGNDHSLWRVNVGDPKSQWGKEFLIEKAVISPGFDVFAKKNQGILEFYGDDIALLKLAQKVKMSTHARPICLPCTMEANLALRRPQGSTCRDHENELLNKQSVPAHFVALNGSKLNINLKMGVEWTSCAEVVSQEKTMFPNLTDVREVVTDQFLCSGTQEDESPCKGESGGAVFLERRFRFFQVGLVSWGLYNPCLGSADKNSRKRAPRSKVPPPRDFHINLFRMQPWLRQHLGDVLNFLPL

IC50 of the proteases for cleavage of C2 (Western blot densitometry, 5% human plasma, 1 h 37 C)	Substance
15.7 nM	wildtype MT-SP1 protease domain (CB200) (from UniProt Q9Y5Y6 615-855) (enzyme)
11.9 nM	modified MT-SP1 CB42 (Y146E) protease domain (from UniProt Q9Y5Y6 615-855) (enzyme)
